The Human Domainome abundance scans (Beltran et al. 2025)

B1: Myocardin, residues 363 to 406; numbered along this chain, Q8IZQ8 (parent)
chain: KPGPLPPNLDDLKVSELRQQLRIRGLPVSGTKTALMDRLRPFQD
B2: Formin-binding protein 4, residues 200 to 261; numbered along this chain, Q8N3X1 (parent)
chain: SGWQYDTQCSLAGVGIEMGDWQEVWDENTGCYYYWNTQTNEVTWELPQYLATQVQGLQHYQP

Variants of: B1
Assay: abundance fitness (aPCA) (normalised: wild type 0, dead -1); higher = more abundant; growth selection in yeast, the domain comes from the species named
Conditions: Homo sapiens

Abundance fitness, by site and new letter:
D44: R -0.03, Q -0.206, W -0.218, S -0.313, V 0.038, Y -0.379

Variants of: B2
Assay: as above
Conditions: Homo sapiens

Abundance fitness: each site, then its substitutions
S10: F -0.776, G -0.148, C -0.332, H -0.644, D -0.472, A -0.266
G2: Q 0.052, C -0.276, M 0.19, R -0.097, Y 0.422, W -0.25, L -0.022, D 0.196, H 0.607, S 0.222, F 0.071, T 0.328, I 0.273, N 0.405
D6: F -0.492, H -0.282, V -0.829, T -0.139, S -0.35, I -0.228, Q -0.785, E -0.135, P -0.706, C -0.342, R -0.14, G -0.17, Y -0.644, A -0.354, W -0.555, K 0.009
Q4: E -0.037, V 0.147, T 0.288, F 0.146, D 0.182, R 0.106, H 0.126, P -0.635, N 0.318, A -0.447, M 0.165, W -0.241, K 0.358, Y -0.176, S -0.023, I 0.232, L -0.385, C -0.051, G -0.207
S1: F -0.457, M 0.503, I -0.222, H -0.921, L -0.501, Q -0.673, G 0.116, V -0.052, D 0.085, W -0.075, A 0.057, N -0.093, E 0.066, T 0.046, C -0.068, K 0.293, P -0.709, R -0.236, Y -0.631
W3: S 0.127, G -0.275, P -0.158, K 0.138, M 0.046, F 0.156, V 0.054, Q 0.157, E -0.376, Y 0.012, I -0.217, R -0.202, L -0.003, T 0.168, C -0.097, H -0.296, A 0.002, D -0.019
Q8: C -0.188, M -0.097, D -0.515, V -0.191, H 0.041, N -0.02, W -0.421, R 0.046, I -0.445, P -0.568, F -0.233, A 0.29, L -0.369, Y -0.267, E 0.123, T 0.187, G 0.105, S 0.164, K 0.239
C9: W -0.377, H -0.139, G -0.081, T 0.22, D 0.052, L 0.049, Q 0.017, P -0.365, K 0.254, A 0.076, S 0.065, I -0.171, V 0.205, Y -0.105
T7: Y -0.181, F -0.461, E -0.392, I -0.453, G -0.06, Q -0.012, A 0.017, N 0.124, M -0.37, H -0.318, W -0.493, P -0.309, R -0.061, V -0.262, C 0.051, S 0.002, K -0.036, D -0.314, L -0.452
Y5: G -0.36, I -0.436, F -0.115, E -0.218, R -0.181, S -0.323, C -0.592, M 0.06, A -0.416, V -0.534, P -0.506, D -0.525, H -0.052, T -0.271, W -0.207, L -0.425, Q -0.357
